# Source: article PMC4139307, “Transforming Growth Factor-β1 Signaling Represses Testicular Steroidogenesis through Cross-Talk with Orphan Nuclear Receptor Nur77”
# Target: GST-Nur77 (UniProt P12813 1-601)
# Test: EMSA; not given in material (EMSA according to previously described procedures, ref 34)
# Details: protein: recombinant; tags: GST; label: 32P (alpha-32P dCTP labeling); annealed to complementary oligonucleotide
# GST-Nur77, sequence (P12813 whole entry): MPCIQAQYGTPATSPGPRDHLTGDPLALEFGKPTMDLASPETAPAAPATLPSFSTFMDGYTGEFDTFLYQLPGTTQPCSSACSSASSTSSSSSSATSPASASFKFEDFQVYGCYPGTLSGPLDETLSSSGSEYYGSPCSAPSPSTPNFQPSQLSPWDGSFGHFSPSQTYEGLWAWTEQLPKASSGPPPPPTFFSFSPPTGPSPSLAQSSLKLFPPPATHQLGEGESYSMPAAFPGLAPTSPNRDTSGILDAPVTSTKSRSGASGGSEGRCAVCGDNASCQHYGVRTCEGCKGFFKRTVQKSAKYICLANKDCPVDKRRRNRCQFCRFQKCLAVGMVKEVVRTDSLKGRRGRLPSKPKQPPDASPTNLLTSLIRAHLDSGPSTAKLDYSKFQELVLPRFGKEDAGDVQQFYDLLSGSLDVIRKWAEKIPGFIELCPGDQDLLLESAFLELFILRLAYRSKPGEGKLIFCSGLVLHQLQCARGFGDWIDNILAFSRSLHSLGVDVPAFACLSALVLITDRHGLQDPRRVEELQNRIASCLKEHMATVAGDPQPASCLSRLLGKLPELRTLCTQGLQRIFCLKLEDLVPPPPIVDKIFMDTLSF
binder,measurement,value
NBRE oligonucleotide (dsDNA) DNA 1: GGGGCTCGTGCGAAAAGGTCAAGCGCTA DNA 2: TAGCGCTTGACCTTTTCGCACGAGCCCC,binding result,binds
